Measurements as given in patent US20260049134A1 (UNIVERSITY OF FLORIDA RESEARCH FOUNDATION, published 2026).
Each block holds one binder with its values, some of them ahead of it.

Experiments:
[1] = biological target: T1, PTPRG, endogenous in H929 multiple myeloma cells (human, UniProt P23470 20-1445); test: flow cytometry, H929 + GARS siRNA; None 452
T1 construct: Native protein on H929 cells (flow cytometry, siRNA knockdown) and in H929 lysates (IP/MS); also called phosphatase receptor type γ
T1 sequence (P23470 20-1445 limits assumed): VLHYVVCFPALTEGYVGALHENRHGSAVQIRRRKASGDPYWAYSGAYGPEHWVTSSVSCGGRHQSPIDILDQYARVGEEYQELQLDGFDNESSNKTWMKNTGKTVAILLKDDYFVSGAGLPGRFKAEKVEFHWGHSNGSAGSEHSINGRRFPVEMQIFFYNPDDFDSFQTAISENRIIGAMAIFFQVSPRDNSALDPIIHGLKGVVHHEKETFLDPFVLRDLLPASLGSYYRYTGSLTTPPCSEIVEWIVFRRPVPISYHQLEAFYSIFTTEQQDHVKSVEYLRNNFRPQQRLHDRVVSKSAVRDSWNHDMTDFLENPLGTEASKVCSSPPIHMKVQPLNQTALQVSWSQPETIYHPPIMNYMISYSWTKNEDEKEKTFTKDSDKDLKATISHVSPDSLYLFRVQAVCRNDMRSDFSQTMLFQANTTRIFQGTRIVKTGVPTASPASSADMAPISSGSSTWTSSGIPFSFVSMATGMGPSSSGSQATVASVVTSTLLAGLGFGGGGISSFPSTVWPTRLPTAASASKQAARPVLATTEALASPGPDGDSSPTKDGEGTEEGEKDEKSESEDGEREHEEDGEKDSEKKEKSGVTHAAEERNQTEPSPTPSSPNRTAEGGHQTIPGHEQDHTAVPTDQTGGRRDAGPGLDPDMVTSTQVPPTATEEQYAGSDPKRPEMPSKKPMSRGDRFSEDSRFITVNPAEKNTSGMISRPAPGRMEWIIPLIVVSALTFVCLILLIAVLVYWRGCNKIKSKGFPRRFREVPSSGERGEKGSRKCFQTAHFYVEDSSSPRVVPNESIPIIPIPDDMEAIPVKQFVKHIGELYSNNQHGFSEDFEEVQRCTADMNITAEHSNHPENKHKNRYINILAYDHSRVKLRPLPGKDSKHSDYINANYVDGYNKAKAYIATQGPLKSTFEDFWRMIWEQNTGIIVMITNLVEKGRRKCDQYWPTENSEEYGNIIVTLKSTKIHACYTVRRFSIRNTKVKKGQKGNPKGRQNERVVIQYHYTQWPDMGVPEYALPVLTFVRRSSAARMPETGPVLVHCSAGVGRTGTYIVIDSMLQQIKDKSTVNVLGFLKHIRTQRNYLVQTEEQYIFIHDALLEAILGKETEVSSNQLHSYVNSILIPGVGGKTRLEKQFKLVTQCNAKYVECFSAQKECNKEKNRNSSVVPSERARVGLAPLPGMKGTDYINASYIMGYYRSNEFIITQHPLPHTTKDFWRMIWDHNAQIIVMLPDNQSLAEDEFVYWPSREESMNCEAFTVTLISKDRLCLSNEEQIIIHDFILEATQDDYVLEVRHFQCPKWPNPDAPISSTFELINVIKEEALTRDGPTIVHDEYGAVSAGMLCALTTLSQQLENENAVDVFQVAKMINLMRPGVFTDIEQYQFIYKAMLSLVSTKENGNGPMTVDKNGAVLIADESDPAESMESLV

[2] = biological target: T1, PTPRG, endogenous in H929 multiple …; test: flow cytometry, H929 + CDH18 siRNA; None 443
[3] = biological target: T2, ICAM1, endogenous in H929 multiple myeloma cells (human, UniProt P05362 28-532); test: flow cytometry, H929 + GARS siRNA; None 452
T2 construct: Native protein on H929 cells (flow cytometry, siRNA knockdown) and in H929 lysates (IP/MS); also called CD54
T2 sequence (P05362 28-532 limits assumed): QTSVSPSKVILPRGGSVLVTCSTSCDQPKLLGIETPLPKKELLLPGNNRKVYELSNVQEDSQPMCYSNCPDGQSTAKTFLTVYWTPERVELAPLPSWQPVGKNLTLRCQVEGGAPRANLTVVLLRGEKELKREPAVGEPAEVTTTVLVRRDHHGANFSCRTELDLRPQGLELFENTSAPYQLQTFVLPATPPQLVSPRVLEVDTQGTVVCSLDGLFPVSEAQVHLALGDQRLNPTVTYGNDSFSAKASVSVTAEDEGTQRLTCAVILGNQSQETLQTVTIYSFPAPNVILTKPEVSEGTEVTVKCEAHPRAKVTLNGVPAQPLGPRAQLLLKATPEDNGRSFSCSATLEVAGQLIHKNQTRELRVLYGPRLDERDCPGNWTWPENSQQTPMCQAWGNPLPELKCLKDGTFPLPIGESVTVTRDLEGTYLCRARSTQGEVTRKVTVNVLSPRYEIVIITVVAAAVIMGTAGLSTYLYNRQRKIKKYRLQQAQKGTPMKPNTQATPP

[4] = biological target: T2, ICAM1, endogenous in H929 multiple …; test: flow cytometry, H929 + CDH18 siRNA; None 443
[5] = biological target: T2, ICAM1, endogenous in H929 multiple …; test: flow cytometry, H929 + PTPRG siRNA; None 490
[6] = biological target: T2, ICAM1, endogenous in H929 multiple …; test: flow cytometry, H929 + PTPRG siRNA; None 2.13
[7] = biological target: T3, CADM1, endogenous in H929 multiple myeloma cells (human, UniProt Q9BY67 45-442); test: flow cytometry, H929 + GARS siRNA; None 452
T3 construct: Native protein on H929 cells (flow cytometry, siRNA knockdown) and in H929 lysates (IP/MS); RPMI-8226 cells were used for sorting with HW-97; also called IGSF4A
T3 sequence: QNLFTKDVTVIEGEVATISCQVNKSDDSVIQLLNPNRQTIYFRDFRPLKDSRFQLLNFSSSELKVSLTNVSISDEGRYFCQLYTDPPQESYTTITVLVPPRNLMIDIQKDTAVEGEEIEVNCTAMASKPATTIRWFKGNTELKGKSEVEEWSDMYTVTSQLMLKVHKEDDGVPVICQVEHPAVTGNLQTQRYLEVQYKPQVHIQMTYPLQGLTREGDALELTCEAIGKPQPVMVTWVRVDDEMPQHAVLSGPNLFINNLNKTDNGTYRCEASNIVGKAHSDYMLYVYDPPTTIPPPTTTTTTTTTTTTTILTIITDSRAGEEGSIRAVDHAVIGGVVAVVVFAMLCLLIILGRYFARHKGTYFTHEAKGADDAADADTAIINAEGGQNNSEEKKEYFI

[8] = biological target: T3, CADM1, endogenous in H929 multiple …; test: flow cytometry, H929 + CDH18 siRNA; None 443
[9] = biological target: T4, GARS-His (Sino Biological) (human, UniProt P41250 37-739, limits assumed); test: ELISA, coated recombinant GARS-His, anti-human Fab-peroxidase detection
T4 construct: Bought; also called GARS1; glycyl-tRNA synthetase; not shown: His tag of the bought protein
T4 sequence: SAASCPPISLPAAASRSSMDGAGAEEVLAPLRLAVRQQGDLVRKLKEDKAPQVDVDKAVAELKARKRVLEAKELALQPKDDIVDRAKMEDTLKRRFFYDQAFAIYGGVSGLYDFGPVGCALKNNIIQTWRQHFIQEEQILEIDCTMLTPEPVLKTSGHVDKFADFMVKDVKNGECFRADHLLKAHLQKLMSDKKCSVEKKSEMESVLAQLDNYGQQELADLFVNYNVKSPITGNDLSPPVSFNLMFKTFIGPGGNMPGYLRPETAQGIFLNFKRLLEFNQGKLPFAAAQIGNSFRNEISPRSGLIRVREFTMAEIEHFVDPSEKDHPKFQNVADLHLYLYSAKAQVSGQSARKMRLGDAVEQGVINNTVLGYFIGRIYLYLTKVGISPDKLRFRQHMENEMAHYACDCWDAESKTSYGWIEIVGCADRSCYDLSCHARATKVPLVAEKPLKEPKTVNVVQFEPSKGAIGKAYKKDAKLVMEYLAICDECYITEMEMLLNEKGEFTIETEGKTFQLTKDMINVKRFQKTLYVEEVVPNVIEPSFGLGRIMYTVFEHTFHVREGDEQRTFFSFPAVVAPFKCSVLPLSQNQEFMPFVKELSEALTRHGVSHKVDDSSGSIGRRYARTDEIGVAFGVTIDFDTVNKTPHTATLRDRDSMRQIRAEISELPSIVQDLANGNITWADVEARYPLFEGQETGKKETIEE
Protocol: ELISA ELISA was conducted as described previously. Briefly, 50-150 ng of antigen was coated overnight in half-area 96-well plates at 4° C., blocked with 3% BSA at 37° C. for 1 h, and 150 ng of chimeric rabbit/human IgG1 was added, incubating for 2 h at 37° C. […] After incubating at 37° C. for 15 min-1 h (depending on intensity of controls), data were acquired using a SpectraMax M5 plate reader (Molecular Devices).

PTPRG on U266 cells = biological target: T5, PTPRG on U266 cells (human, UniProt P23470); test: flow cytometry, IgG1 on cell lines, heatmap of % positive cells
T5 construct: endogenous on U266 multiple myeloma cells; also called HW-1 target on U266
T5 sequence (P23470 20-1445 limits assumed): as the sequence (P23470 20-1445 limits assumed) above

[10] = biological target: T1, PTPRG, endogenous in H929 multiple …; test: as above

mAb binding (MFI) [3]: 43200
mAb binding (MFI) [4]: 18200
mAb binding (MFI) [5]: 27800
Cells stained (%) [6]: 98.2%
B2: HW-113 chimeric rabbit-human IgG1 LA/LA/PG (antibody, V domains shown)
VH: QKQLVESGGGLVQPGGSLTLTCTVSGFSLNKYYMGWFRQAPGKGLEWIGVISRSGDTYYSSWAKGRFTISKASTTVDLRITSPTTEDTATYFCARDASSPGFHGDRLDLWGQGTLVTVSS
VL: SFVLTQPASVQVNLGQTVSLTCTADTLSRSYASWYQQKPGQAPVLLIYRDTSRPSGVPDRFSGSSSGNTATLTISGAQAGDEADYYCATSDGIGSNYLWVFGGGTQLTVTG
notes: Fc-silenced (L234A/L235A/P329G) IgG1, lambda; Alexa Fluor 647-labeled in single-step flow cytometry

mAb binding (MFI) [7]: 22100
mAb binding (MFI) [8]: 17900
B3: HW-97 chimeric rabbit-human IgG1 LA/LA/PG (antibody, V domains shown)
VH: QKQLVESGGRLVTPGTPLTLTCTVTGIDLSSHGMSWVRQAPGKGLEWIGVIYPSGSTWYASWARGRFTISKTSTTVDLKMTSLTTEDTATHFCARGDVGGADNNIWGPGTLVTVSS
VL: SFVLTQPASVQVDLGQTVSLTCTAETLSRSYASWYQQKPGQAPVLLIYRDTSRPSGVPDRFSGSSSGNTATLTISGAQAGDEADYYCATSDGSGSSYQYVFGGGTQLTVTG
notes: Fc-silenced (L234A/L235A/P329G) IgG1, lambda; Alexa Fluor 647-labeled in single-step flow cytometry; Prototype of cluster C-97

binding result (PTPRG on U266 cells): no binding
binding result [10]: no binding
B5: TH9-0022 (antibody, human IgG1, kappa, L234A L235A, V domains shown)
VH: QSLEESGGRLVTPGTPLTLTCTVSGFSLSSYAMNWVRQAPGKGLEWIGIINSYGSTYYASWAKGRFTISKTSTTVDLKITSPTTEDTATYFCARVTYDSYGYGYAPYGMDLWGPGTLVTVSS
VL: LVMTQTPSSTSNAVGGTVTIKCQASQSIGNVLAWYQQKPGQPPKLLIYAASTLASGVPSRVGGSRSGTEYTLTISGVQREDAATYYCLGSDSDSDIAFGGGTELEILR
notes: also called TH9-022; negative control IgG1

The next lines start with the binder.

B1: HW-42 chimeric rabbit-human IgG1 LA/LA/PG (antibody, V domains shown)
VH: QSVKESEGGLFKPADTLTLTCTVSGFSLSSNEISWVRQAPGEGLEYIGIIDTGGRAYYAVWARSRSTITRNTNLNTVTLKMTSLTAADTATYFCARGGVDTEWYAFSSWGPGTLVTVPS
VL: SFVLTQPASVQVNLGQTVSLTCTADTLSRRYASWYQQKPGQAPVLLIFRDTSRPSGVPDRFSGSSSGDTATLTISGAQAGDEADYYCATSDGSGSNYQYVFGGGTQLTVTG
notes: Fc-silenced (L234A/L235A/P329G) IgG1, lambda; Alexa Fluor 647-labeled in single-step flow cytometry; Cluster C-1
mAb binding (MFI) [1]: 9850
mAb binding (MFI) [2]: 9870

B4: HW-8 chimeric rabbit-human IgG1 LA/LA/PG (antibody, V domains shown)
VH: QSLEESGGRLVTPGTPLTLTCTVSGFSLSSYAMSWVRQAPGKGLEWIGAISTGGSTTYASWAKGRFTISKTSSTTVDLKMTSLTTEDTATYFCVRHFRLWGPGTLVTISS
VL: QVLTQTPSSVSAAVGGTVTIKCQASQSIGSALAWFQQKPGQRPKLLIYRASNLASGVPSRFKGSGSGTEFALTISGVQREDAATYYCLGGAAAVWAFGAGTNVEIKR
notes: Fc-silenced (L234A/L235A/P329G) IgG1, kappa; Alexa Fluor 647-labeled in single-step flow cytometry; Cluster C-45
binding result [9]: no binding (tested: 150 ng of IgG1 per well)
